This is an account of results in patent US20160024155A1 (published 2016).

As usually defined, the Kd is the constant that tells how readily two partners part at equilibrium. The low end stands for tighter binding, the high end for weaker binding.

Experiment [1] addresses T1, A/South Carolina/1/1918 (H1N1) hemagglutinin ectodomain (Influenza A virus A/South …).
Experiment [2] concerns the target T1, A/South Carolina/1/1918 (H1N1) …. This is another data set of the same source.
Experiment [3] has the same target. This is another data set of the same source.
Experiment [4] shares this target. This is another data set of the same source.

Read-outs that look alike come from different tables or passages of the source. Where only a bound is given, the exact number is not on record here.

B1: HB80.1 (Met26Thr, Asn36Lys) (designed binder)
chain: MASTRGSGRPWDFSENLAFELALAFTNKDTPDRWAKVAQYVSGRTPEEVKKHYEILVEDIKYIESGKVPFPNYRTTGGNMKTDEKRFRNLKIRLE
Consider B1, for which the Kd in experiment [1] and in experiment [2] was 7.5 nM in each case.

B2: HB36.1 (Asp47Ser) (designed binder)
chain: MSNAMDGQQLNRLLLEWIGAWDPFGLGKDAYDVEAEAVLQAVYETESAFDLAMRIMWIYAFAFNRPIPFPHAQKLARRLLELKQAASSPLPLE
The molecule B2 had a Kd in experiment [1] of 5 nM. Moreover, the “fold increase in binding affinity relative to HB36” value in experiment [3] is roughly 40 fold. Further, in experiment [4], the dissociation constant Kd lay in the range of 2 to 5 nM and the “fold increase in binding affinity relative to original design (HB36)” value is greater than 10 fold.
